This passage reports Max effect/effect 1 µM and EC50 results from US20250171562A1.

B1: CIgG4F3A1(RS) (Fc fusion)
chain 1: GPPCPPCPAPEFLGGPSVFLFPPKPKDTLMISRTPEVTCVVVDVSQEDPEVQFNWYVDGVEVHNAKTKPREEQFNSTYRVVSVLTVLHQDWLNGKEYKCKVSNKGLPSSIEKTISKAKGQPREPQVYTLPPCQEEMTKNQVSLWCLVKGFYPSDIAVEWESNGQPENNYKTTPPVLDSDGSFFLYSRLTVDKSRWQEGNVFSCSVMHEALHNHYTQKSLSLSLGKRSDVQLQESGGGLVQAGGSLKLSCAASRGSLSRWDVAWFRQAPGKERSFVTRISWSGTTSYYADAVKGRFAISRDNAKNTVYLQMNSLKPEDTAVYYCAVALYGNRGYYDVNAHSYWGQGTQVTVS
chain 2: GPPCPPCPAPEFLGGPSVFLFPPKPKDTLMISRTPEVTCVVVDVSQEDPEVQFNWYVDGVEVHNAKTKPREEQFNSTYRVVSVLTVLHQDWLNGKEYKCKVSNKGLPSSIEKTISKAKGQPREPQVCTLPPSQEEMTKNQVSLSCAVKGFYPSDIAVEWESNGQPENNYKTTPPVLDSDGSFFLVSRLTVDKSRWQEGNVFSCSVMHEALHNHYTQKSLSLSLGKRSEVQLLESGGGLVQPGGSLRLSCAASGFTFGNYDMAWVRQAPGKRPEWVSSIDTGGDITHYADSVKGRFTISRDNAKNTLYLQMNSLRPEDTAVYWCATDEEYALGPNEFDYYGQGTLVTVSS
B2: CIgG4F2A1(G4S)3 (Fc fusion)
chain 1: GPPCPPCPAPEFLGGPSVFLFPPKPKDTLMISRTPEVTCVVVDVSQEDPEVQFNWYVDGVEVHNAKTKPREEQFNSTYRVVSVLTVLHQDWLNGKEYKCKVSNKGLPSSIEKTISKAKGQPREPQVYTLPPCQEEMTKNQVSLWCLVKGFYPSDIAVEWESNGQPENNYKTTPPVLDSDGSFFLYSRLTVDKSRWQEGNVFSCSVMHEALHNHYTQKSLSLSLGKGGGGSGGGGSGGGGSDVQLQESGGGLVQAGGSLKLSCAASGGSLSRYDMGWFRQAPGKEREFVARISWSGDTKYYADAVEGRFAISRDNAQNTVYLQMNSLKPEDTAVYYCAVALYGNRGYYDVNTYSYWGQGTRVTVS
chain 2: GPPCPPCPAPEFLGGPSVFLFPPKPKDTLMISRTPEVTCVVVDVSQEDPEVQFNWYVDGVEVHNAKTKPREEQFNSTYRVVSVLTVLHQDWLNGKEYKCKVSNKGLPSSIEKTISKAKGQPREPQVCTLPPSQEEMTKNQVSLSCAVKGFYPSDIAVEWESNGQPENNYKTTPPVLDSDGSFFLVSRLTVDKSRWQEGNVFSCSVMHEALHNHYTQKSLSLSLGKGGGGSGGGGSGGGGSEVQLLESGGGLVQPGGSLRLSCAASGFTFGNYDMAWVRQAPGKRPEWVSSIDTGGDITHYADSVKGRFTISRDNAKNTLYLQMNSLRPEDTAVYWCATDEEYALGPNEFDYYGQGTLVTVSS
B3: NIgG4F3A1(G4S)3 (Fc fusion)
chain 1: DVQLQESGGGLVQAGGSLKLSCAASRGSLSRWDVAWFRQAPGKERSFVTRISWSGTTSYYADAVKGRFAISRDNAKNTVYLQMNSLKPEDTAVYYCAVALYGNRGYYDVNAHSYWGQGTQVTVSGGGGSGGGGSGGGGSGPPCPPCPAPEFLGGPSVFLFPPKPKDTLMISRTPEVTCVVVDVSQEDPEVQFNWYVDGVEVHNAKTKPREEQFNSTYRVVSVLTVLHQDWLNGKEYKCKVSNKGLPSSIEKTISKAKGQPREPQVYTLPPCQEEMTKNQVSLWCLVKGFYPSDIAVEWESNGQPENNYKTTPPVLDSDGSFFLYSRLTVDKSRWQEGNVFSCSVMHEALHNHYTQKSLSLSLGK
chain 2: EVQLLESGGGLVQPGGSLRLSCAASGFTFGNYDMAWVRQAPGKRPEWVSSIDTGGDITHYADSVKGRFTISRDNAKNTLYLQMNSLRPEDTAVYWCATDEEYALGPNEFDYYGQGTLVTVSSGGGGSGGGGSGGGGSGPPCPPCPAPEFLGGPSVFLFPPKPKDTLMISRTPEVTCVVVDVSQEDPEVQFNWYVDGVEVHNAKTKPREEQFNSTYRVVSVLTVLHQDWLNGKEYKCKVSNKGLPSSIEKTISKAKGQPREPQVCTLPPSQEEMTKNQVSLSCAVKGFYPSDIAVEWESNGQPENNYKTTPPVLDSDGSFFLVSRLTVDKSRWQEGNVFSCSVMHEALHNHYTQKSLSLSLGK
B4: NIgG4F3A1(G4S)2 (Fc fusion)
chain 1: DVQLQESGGGLVQAGGSLKLSCAASRGSLSRWDVAWFRQAPGKERSFVTRISWSGTTSYYADAVKGRFAISRDNAKNTVYLQMNSLKPEDTAVYYCAVALYGNRGYYDVNAHSYWGQGTQVTVSGGGGSGGGGSGPPCPPCPAPEFLGGPSVFLFPPKPKDTLMISRTPEVTCVVVDVSQEDPEVQFNWYVDGVEVHNAKTKPREEQFNSTYRVVSVLTVLHQDWLNGKEYKCKVSNKGLPSSIEKTISKAKGQPREPQVYTLPPCQEEMTKNQVSLWCLVKGFYPSDIAVEWESNGQPENNYKTTPPVLDSDGSFFLYSRLTVDKSRWQEGNVFSCSVMHEALHNHYTQKSLSLSLGK
chain 2: EVQLLESGGGLVQPGGSLRLSCAASGFTFGNYDMAWVRQAPGKRPEWVSSIDTGGDITHYADSVKGRFTISRDNAKNTLYLQMNSLRPEDTAVYWCATDEEYALGPNEFDYYGQGTLVTVSSGGGGSGGGGSGPPCPPCPAPEFLGGPSVFLFPPKPKDTLMISRTPEVTCVVVDVSQEDPEVQFNWYVDGVEVHNAKTKPREEQFNSTYRVVSVLTVLHQDWLNGKEYKCKVSNKGLPSSIEKTISKAKGQPREPQVCTLPPSQEEMTKNQVSLSCAVKGFYPSDIAVEWESNGQPENNYKTTPPVLDSDGSFFLVSRLTVDKSRWQEGNVFSCSVMHEALHNHYTQKSLSLSLGK
B5: NIgG4F3A1(G4S)1 (Fc fusion)
chain 1: DVQLQESGGGLVQAGGSLKLSCAASRGSLSRWDVAWFRQAPGKERSFVTRISWSGTTSYYADAVKGRFAISRDNAKNTVYLQMNSLKPEDTAVYYCAVALYGNRGYYDVNAHSYWGQGTQVTVSGGGGSGPPCPPCPAPEFLGGPSVFLFPPKPKDTLMISRTPEVTCVVVDVSQEDPEVQFNWYVDGVEVHNAKTKPREEQFNSTYRVVSVLTVLHQDWLNGKEYKCKVSNKGLPSSIEKTISKAKGQPREPQVYTLPPCQEEMTKNQVSLWCLVKGFYPSDIAVEWESNGQPENNYKTTPPVLDSDGSFFLYSRLTVDKSRWQEGNVFSCSVMHEALHNHYTQKSLSLSLGK
chain 2: EVQLLESGGGLVQPGGSLRLSCAASGFTFGNYDMAWVRQAPGKRPEWVSSIDTGGDITHYADSVKGRFTISRDNAKNTLYLQMNSLRPEDTAVYWCATDEEYALGPNEFDYYGQGTLVTVSSGGGGSGPPCPPCPAPEFLGGPSVFLFPPKPKDTLMISRTPEVTCVVVDVSQEDPEVQFNWYVDGVEVHNAKTKPREEQFNSTYRVVSVLTVLHQDWLNGKEYKCKVSNKGLPSSIEKTISKAKGQPREPQVCTLPPSQEEMTKNQVSLSCAVKGFYPSDIAVEWESNGQPENNYKTTPPVLDSDGSFFLVSRLTVDKSRWQEGNVFSCSVMHEALHNHYTQKSLSLSLGK
B6: CIgG4F2A1(G4S)2 (Fc fusion)
chain 1: GPPCPPCPAPEFLGGPSVFLFPPKPKDTLMISRTPEVTCVVVDVSQEDPEVQFNWYVDGVEVHNAKTKPREEQFNSTYRVVSVLTVLHQDWLNGKEYKCKVSNKGLPSSIEKTISKAKGQPREPQVYTLPPCQEEMTKNQVSLWCLVKGFYPSDIAVEWESNGQPENNYKTTPPVLDSDGSFFLYSRLTVDKSRWQEGNVFSCSVMHEALHNHYTQKSLSLSLGKGGGGSGGGGSDVQLQESGGGLVQAGGSLKLSCAASGGSLSRYDMGWFRQAPGKEREFVARISWSGDTKYYADAVEGRFAISRDNAQNTVYLQMNSLKPEDTAVYYCAVALYGNRGYYDVNTYSYWGQGTRVTVS
chain 2: GPPCPPCPAPEFLGGPSVFLFPPKPKDTLMISRTPEVTCVVVDVSQEDPEVQFNWYVDGVEVHNAKTKPREEQFNSTYRVVSVLTVLHQDWLNGKEYKCKVSNKGLPSSIEKTISKAKGQPREPQVCTLPPSQEEMTKNQVSLSCAVKGFYPSDIAVEWESNGQPENNYKTTPPVLDSDGSFFLVSRLTVDKSRWQEGNVFSCSVMHEALHNHYTQKSLSLSLGKGGGGSGGGGSEVQLLESGGGLVQPGGSLRLSCAASGFTFGNYDMAWVRQAPGKRPEWVSSIDTGGDITHYADSVKGRFTISRDNAKNTLYLQMNSLRPEDTAVYWCATDEEYALGPNEFDYYGQGTLVTVSS
B7: CIgG4F2A1(G4S)1 (Fc fusion)
chain 1: GPPCPPCPAPEFLGGPSVFLFPPKPKDTLMISRTPEVTCVVVDVSQEDPEVQFNWYVDGVEVHNAKTKPREEQFNSTYRVVSVLTVLHQDWLNGKEYKCKVSNKGLPSSIEKTISKAKGQPREPQVYTLPPCQEEMTKNQVSLWCLVKGFYPSDIAVEWESNGQPENNYKTTPPVLDSDGSFFLYSRLTVDKSRWQEGNVFSCSVMHEALHNHYTQKSLSLSLGKGGGGSDVQLQESGGGLVQAGGSLKLSCAASGGSLSRYDMGWFRQAPGKEREFVARISWSGDTKYYADAVEGRFAISRDNAQNTVYLQMNSLKPEDTAVYYCAVALYGNRGYYDVNTYSYWGQGTRVTVS
chain 2: GPPCPPCPAPEFLGGPSVFLFPPKPKDTLMISRTPEVTCVVVDVSQEDPEVQFNWYVDGVEVHNAKTKPREEQFNSTYRVVSVLTVLHQDWLNGKEYKCKVSNKGLPSSIEKTISKAKGQPREPQVCTLPPSQEEMTKNQVSLSCAVKGFYPSDIAVEWESNGQPENNYKTTPPVLDSDGSFFLVSRLTVDKSRWQEGNVFSCSVMHEALHNHYTQKSLSLSLGKGGGGSEVQLLESGGGLVQPGGSLRLSCAASGFTFGNYDMAWVRQAPGKRPEWVSSIDTGGDITHYADSVKGRFTISRDNAKNTLYLQMNSLRPEDTAVYWCATDEEYALGPNEFDYYGQGTLVTVSS
B8: NIgG4F3A1(RS) (Fc fusion)
chain 1: DVQLQESGGGLVQAGGSLKLSCAASRGSLSRWDVAWFRQAPGKERSFVTRISWSGTTSYYADAVKGRFAISRDNAKNTVYLQMNSLKPEDTAVYYCAVALYGNRGYYDVNAHSYWGQGTQVTVSRSGPPCPPCPAPEFLGGPSVFLFPPKPKDTLMISRTPEVTCVVVDVSQEDPEVQFNWYVDGVEVHNAKTKPREEQFNSTYRVVSVLTVLHQDWLNGKEYKCKVSNKGLPSSIEKTISKAKGQPREPQVYTLPPCQEEMTKNQVSLWCLVKGFYPSDIAVEWESNGQPENNYKTTPPVLDSDGSFFLYSRLTVDKSRWQEGNVFSCSVMHEALHNHYTQKSLSLSLGK
chain 2: EVQLLESGGGLVQPGGSLRLSCAASGFTFGNYDMAWVRQAPGKRPEWVSSIDTGGDITHYADSVKGRFTISRDNAKNTLYLQMNSLRPEDTAVYWCATDEEYALGPNEFDYYGQGTLVTVSSRSGPPCPPCPAPEFLGGPSVFLFPPKPKDTLMISRTPEVTCVVVDVSQEDPEVQFNWYVDGVEVHNAKTKPREEQFNSTYRVVSVLTVLHQDWLNGKEYKCKVSNKGLPSSIEKTISKAKGQPREPQVCTLPPSQEEMTKNQVSLSCAVKGFYPSDIAVEWESNGQPENNYKTTPPVLDSDGSFFLVSRLTVDKSRWQEGNVFSCSVMHEALHNHYTQKSLSLSLGK

The target in the test is mixture of three Der p 2 specific recombinant human IgE clones H10, H12, P4E (human) (UniProt P01854). Briefly: RBL-SX38 IgE displacement, FACS.
mixture of three Der p 2 specific recombinant human IgE clones H10, H12, P4E (human), sequence (P01854 other isoform, or with tags, fused parts or gaps): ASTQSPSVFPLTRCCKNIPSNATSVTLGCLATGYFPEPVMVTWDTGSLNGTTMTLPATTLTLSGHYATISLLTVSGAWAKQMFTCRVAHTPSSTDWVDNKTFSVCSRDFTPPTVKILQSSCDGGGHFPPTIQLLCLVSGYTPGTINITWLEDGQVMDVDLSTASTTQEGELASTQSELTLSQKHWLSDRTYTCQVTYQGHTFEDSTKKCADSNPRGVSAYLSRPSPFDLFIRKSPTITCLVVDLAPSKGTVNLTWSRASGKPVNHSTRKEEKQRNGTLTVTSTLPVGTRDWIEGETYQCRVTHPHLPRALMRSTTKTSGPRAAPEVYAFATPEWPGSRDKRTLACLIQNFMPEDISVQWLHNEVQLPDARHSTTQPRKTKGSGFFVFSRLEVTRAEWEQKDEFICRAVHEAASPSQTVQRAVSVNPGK
With B1, the Max effect/effect 1 µM was found to be 9%.

Consider B2, for which the Max effect/effect 1 µM worked out at 2%.

By EC50 is commonly meant the concentration giving half of the maximal effect. Consider B3, for which the concentration for a half-maximal effect (EC50) was determined as 0.9 nM and the Max effect/effect 1 µM is 94%.

Take B4: the EC50 is 2 nM and the Max effect/effect 1 µM was 95%.

Consider B5, for which the EC50 worked out at 2 nM and the Max effect/effect 1 µM worked out at 93%.

Turning to B6, the Max effect/effect 1 µM stood at 0%.

Consider B7, for which the Max effect/effect 1 µM worked out at 11%.

On to B8, for which the concentration for a half-maximal effect (EC50) was found to be 2 nM and the Max effect/effect 1 µM was 93%.
